Data on two substances can be found in patent publication US20040110252A1, “Yeast-based assay” (priority 2000, published 2004).

Where two headings read alike, the source gives them in different places.

In series [1] the target is P-factor receptor (encoded by the mam2 gene) (Schizosaccharomyces pombe) (UniProt Q00619).
Series [2] deals with S. cerevisiae cells. To be noted: cited from earlier work.
Series [3] concerns Sz. pombe cells. The following applies: cited from earlier work.

The substance P-factor mating pheromone (peptide) came in with a colony formation of sxa2>ura4 reporter cells on plates lacking uracil with different concentrations of P-factor in series [1] above 10 units/ml.
Turning to Diphtheria toxin, the “Sensitivity of cells to the toxin” value is on record as “sensitive” in series [2] (S. cerevisiae spheroplasts (cell wall enzymatically removed)), “resistant” in series [2] (intact S. cerevisiae cells) and “sensitive” in series [3].
